Data: patent publication US20200299400A1

Biological target: human GITR on activated CD4 T cells (human) (UniProt Q9Y5U5)
Test: FACS binding to activated human CD4 T cells

human GITR on activated CD4 T cells (human), sequence (Q9Y5U5 26-241): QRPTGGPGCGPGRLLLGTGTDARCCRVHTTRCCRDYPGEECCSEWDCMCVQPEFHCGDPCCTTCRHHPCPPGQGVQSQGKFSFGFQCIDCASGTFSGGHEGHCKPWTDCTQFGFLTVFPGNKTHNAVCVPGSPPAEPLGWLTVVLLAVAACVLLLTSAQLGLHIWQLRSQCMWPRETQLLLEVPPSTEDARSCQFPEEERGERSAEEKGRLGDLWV

EC50 [µM] | Substance
0.132 | unrelated hIgG1
0.00673 | unrelated hIgG2
